Test results: patent US20140227179A1

What was measured:
[1] = target: MUC5ac mucin (PAM4 antigen) from CaPan1 human pancreatic carcinoma (human) (UniProt P98088); experiment: sandwich EIA, hPAM4 capture of antigen from CPM1, MAb probe at 10 µg/mL (FIG. 26)
[2] = target: MUC5ac mucin (PAM4 antigen) from CaPan1 human pancreatic carcinoma (human) (UniProt P98088); experiment: inhibition EIA on CPM1-coated plates; competitor hPAM4 at […]
[3] = target: MUC5ac mucin (PAM4 antigen) from CaPan1 human pancreatic carcinoma (human) (UniProt P98088); experiment: radiolabeled TF10 with MUC5ac, size exclusion chromatography (not shown)
[4] = target: MUC5ac mucin (PAM4 antigen) from CaPan1 human pancreatic carcinoma (human) (UniProt P98088); experiment: size exclusion chromatography of TF10/111In-IMP-288 with excess mucin
[5] = target: IMP-288 DOTA-di-HSG hapten-peptide; experiment: 111In-IMP-288 with TF10, size exclusion chromatography (not shown)
[6] = target: MUC5ac mucin (PAM4 antigen) from CaPan1 human pancreatic carcinoma (human) (UniProt P98088); experiment: ELISA on target mucin antigen (FIG. 9)

Kd [1] | ICmax (maximal % inhibition) [2] | immunoreactive fraction bound [3] | percent of TF10-bound 111In-IMP-288 shifted by mucin [4] | percent of peptide bound [5] | EC50 [6] | Substance
14.3 µg/mL | 25.5% | – | – | – | – | 45M1 anti-MUC5ac MAb (antibody)
– | – | 87% | 92% | 90% | 1.42 nM | TF10 bispecific ([hPAM4]2 x h679) DNL construct (bispecific antibody)
